Source: patent US20040147432A1 (MERCK, published 2004)
Like-named read-outs stand apart in the source and are kept apart here. One block for each binder: values may come before it. Bridges are numbered along the chain shown (N, C = ends). Where no end group is shown, it is not given here. [ ]: non-standard residue; d: D form. Arg(NO2) = N=C(NCCC[C@H](N)C(=O)O)N[N+](=O)[O-]

Columns and labels:
human MCH-1R [1] = target: T1, human MCH-1R (human, UniProt Q99705 1-353); test: cell-based or functional assay
T1 sequence (Q99705 whole entry, form in doubt): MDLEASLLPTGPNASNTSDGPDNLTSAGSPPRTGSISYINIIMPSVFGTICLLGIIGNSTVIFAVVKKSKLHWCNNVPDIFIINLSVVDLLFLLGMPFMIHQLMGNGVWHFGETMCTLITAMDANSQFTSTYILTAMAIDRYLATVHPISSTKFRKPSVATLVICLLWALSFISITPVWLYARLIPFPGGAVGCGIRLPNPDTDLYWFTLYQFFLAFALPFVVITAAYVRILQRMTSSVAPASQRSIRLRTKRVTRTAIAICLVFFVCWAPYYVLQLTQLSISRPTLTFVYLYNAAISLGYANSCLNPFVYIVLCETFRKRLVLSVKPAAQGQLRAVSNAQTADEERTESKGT

[2] = target: T2, human melanin concentrating hormone type 2 receptor (MCH-2R) (human, UniProt Q969V1 1-340); test: cell-based or functional assay
T2 sequence (Q969V1 whole entry, form in doubt): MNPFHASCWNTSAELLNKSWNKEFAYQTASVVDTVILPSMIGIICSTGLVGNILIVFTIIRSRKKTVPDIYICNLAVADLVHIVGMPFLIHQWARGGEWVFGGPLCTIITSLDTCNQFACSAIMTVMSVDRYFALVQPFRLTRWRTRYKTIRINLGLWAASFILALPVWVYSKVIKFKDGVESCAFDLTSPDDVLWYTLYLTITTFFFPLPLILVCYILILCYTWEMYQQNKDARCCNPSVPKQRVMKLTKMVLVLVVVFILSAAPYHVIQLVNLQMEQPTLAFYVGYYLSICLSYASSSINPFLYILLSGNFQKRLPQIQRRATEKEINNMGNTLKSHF

[3] = target: T2, human melanin concentrating hormone …; test: cell-based or functional assay; remark: listed apart in the source
human MCH-1R [4] = target: T1, human MCH-1R; test: cell-based or functional assay; remark: listed apart in the source
[5] = target: T2, human melanin concentrating hormone …; test: SPA competition with [125I]-human MCH (Phe13, Tyr19) on receptor membranes
Method: (§1) For the SPA-based assay, WGA-PVT beads (NEN Life Sciences Products) were resuspended in Dulbecco's PBS with calcium and magnesium (500 mg beads in 4 ml PBS). […] The suspension was mixed gently for 20 minutes, 12.3 ml of assay buffer and protease inhibitors were added (final concentration given): 2 μg/ml leupeptin, 10 μM phosphoramidon, 40 μg/ml bacitracin, 5 μg/ml aprotinin, 0.1 mM Pefabloc.
(§2) Coated beads were kept on ice until use. […] Binding reactions were allowed to proceed at room temperature for 3 hours. Quantitation was performed by scintillation counting (TopCount device).

human MCH-1R [6] = target: T1, human MCH-1R; test: cell-based or functional assay; remark: listed apart in the source
[7] = target: T2, human melanin concentrating hormone …; test: cell-based or functional assay; remark: listed apart in the source
human MCH-1R [8] = target: T1, human MCH-1R; test: SPA competition with [125I]-human MCH (Phe13, Tyr19) on receptor membranes
Method: as §1, §2

[9] = target: T2, human melanin concentrating hormone …; test: as above; remark: listed apart in the source
Method: as §1, §2

human MCH-1R [10] = target: T1, human MCH-1R; test: cell-based or functional assay; remark: listed apart in the source
[11] = target: T2, human melanin concentrating hormone …; test: SPA competition with [125I]-human MCH (Phe13, Tyr19) on receptor membranes; remark: listed apart in the source
Method: as §1, §2

human MCH-1R [12] = target: T1, human MCH-1R; test: as above; remark: listed apart in the source
Method: as §1, §2

human MCH-1R [13] = target: T1, human MCH-1R; test: as above; remark: listed apart in the source
Method: as §1, §2

Activation % at 10 µM (aequorin functional assay) (human MCH-1R [1]): 49% | Activation % at 10 µM (aequorin functional assay) [2]: 103%
Binder: XCMLGRVYRPC (not fully specified; (?NH2)-Arg at position 6) [SEQ. ID. NO. 40]

Activation % at 10 µM (aequorin functional assay) [3]: 34% | EC50 (aequorin functional assay) [3]: 260 nM | Activation % at 10 µM (aequorin functional assay) (human MCH-1R [4]): 0.1% | EC50 (aequorin functional assay) (human MCH-1R [4]): > 10000 nM | IC50 [5]: 490 nM
Binder: Ac-RCML[dA][Arg(NO2)]VYRPC-NH2 (disulfide 2-11 (inferred), also called D-Ala^10, Arg(NO2)^11) [SEQ. ID. NO. 37]

Activation % at 10 µM (aequorin functional assay) (human MCH-1R [6]): 97% | EC50 (aequorin functional assay) (human MCH-1R [6]): 40 nM | Activation % at 10 µM (aequorin functional assay) [7]: 92% | EC50 (aequorin functional assay) [7]: 1.5 nM | IC50 (human MCH-1R [8]): 0.6 nM | IC50 [9]: 0.07 nM
B1: SEQ. ID. NO. 57 (peptide)
peptide: DFDMLRCMLGRVFRPCYQV
modifications: disulfide 7-16
notes: label prints Tyr^17 while the radioligand is Phe^13, Tyr^19; also called Phe^13, Tyr^17

Activation % at 10 µM (aequorin functional assay) (human MCH-1R [10]): 100% | Activation % at 10 µM (aequorin functional assay) [3]: 100% | EC50 (aequorin functional assay) [3]: 30.7 nM | IC50 [11]: 0.5 nM | Activation % at 10 µM (aequorin functional assay) (human MCH-1R [1]): 100% | Activation % at 10 µM (aequorin functional assay) [2]: 100% | EC50 (aequorin functional assay) [2]: 30.7 nM | Activation % at 10 µM (aequorin functional assay) (human MCH-1R [6]): 100% | Activation % at 10 µM (aequorin functional assay) [7]: 100% | EC50 (aequorin functional assay) [7]: 44.7 nM | IC50 [9]: 0.9 nM | IC50 [5]: 0.5 nM
B2: human MCH (melanin-concentrating hormone), SEQ. ID. NO. 1 (ligand)
peptide: DFDMLRCMLGRVYRPCWQV
modifications: disulfide 7-16 (inferred)
notes: cyclic 19-amino acid peptide; also called hMCH; mammalian MCH

Activation % at 10 µM (aequorin functional assay) (human MCH-1R [6]): 100% | EC50 (aequorin functional assay) (human MCH-1R [6]): 17.4 nM | Activation % at 10 µM (aequorin functional assay) [7]: 99% | EC50 (aequorin functional assay) [7]: 58.9 nM | IC50 (human MCH-1R [8]): 0.4 nM | IC50 [9]: 8.7 nM
Binder: DFDMLRCMLGRVYRPCWQA (disulfide 7-16, also called Ala^19) [SEQ. ID. NO. 56]

Activation % at 10 µM (aequorin functional assay) (human MCH-1R [10]): 99% | EC50 (aequorin functional assay) (human MCH-1R [10]): 20 nM | IC50 (human MCH-1R [12]): 0.5 nM | IC50 [11]: 2 nM | Activation % at 10 µM (aequorin functional assay) (human MCH-1R [1]): 99% | EC50 (aequorin functional assay) (human MCH-1R [1]): 20 nM | IC50 (human MCH-1R [13]): 1.4 nM | IC50 [5]: 2 nM
Binder: Ac-RCMLGRVYRPC-NH2 (disulfide 2-11 (inferred), positions numbered 6-16 as in hMCH) [truncated form of human MCH, SEQ. ID. NO. 2]
